Results taken from patent publication US20110135647.

Molecular target: T1, C-terminal recombinant protein of F3374 (437-730 amino acids, His-tag)
T1 chain: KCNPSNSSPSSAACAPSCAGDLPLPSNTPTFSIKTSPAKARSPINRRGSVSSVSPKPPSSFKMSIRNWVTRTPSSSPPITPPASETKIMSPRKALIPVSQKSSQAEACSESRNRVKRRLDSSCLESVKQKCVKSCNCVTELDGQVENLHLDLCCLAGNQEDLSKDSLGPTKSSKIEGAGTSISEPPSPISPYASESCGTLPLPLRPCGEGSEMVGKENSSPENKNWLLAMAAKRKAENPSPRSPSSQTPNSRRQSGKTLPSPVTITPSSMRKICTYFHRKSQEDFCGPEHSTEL

B1: full-length recombinant protein of AURKB (Upstate) (protein)
chain: MAQKENSYPWPYGRQTAPSGLSTLPQRVLRKEPVTPSALVLMSRSNVQPTAAPGQKVMENSSGTPDILTRHFTIDDFEIGRPLGKGKFGNVYLAREKKSHFIVALKVLFKSQIEKEGVEHQLRREIEIQAHLHHPNILRLYNYFYDRRRIYLILEYAPRGELYKELQKSCTFDEQRTATIMEELADALMYCHGKKVIHRDIKPENLLLGLKGELKIADFGWSVHAPSLRRKTMCGTLDYLPPEMIEGRMHNEKVDLWCIGVLCYELLVGNPPFESASHNETYRRIVKVDLKFPASVPMGAQDLISKLLRHNPSERLPLAQVSAHPWVRANSRRVLPPSALQSVA
in vitro kinase assay (32P, autoradiography): found phosphorylation of the F3374 protein by AURKB in vitro
